Test results taken from PMC12015630.

Biological target: LmrR_V15aY
Experiment: SEC; purified LmrR_V15aY after affinity chromatography; conditions not shown (Fig. S2, ESI)

- stoichiometry N: 2
Substance: LmrR_V15aY (enzyme)
